Measured values taken from US20060241031A1 (priority 2003, published 2006).
Like-named read-outs stand apart in the source and are kept apart here.

Experiments:
α-defensin = target: T1, α-defensin (Homo sapiens, UniProt P59665); assay: Antimicrobial assay, inhibition of bactericidal effect of α-defensin; type: cell-based
T1 construct: α-defensin (HNP-1), […]; (Mw 3442) was purchased from Sigma; purchased Sigma
T1 sequence (P59665 65-94 limits assumed): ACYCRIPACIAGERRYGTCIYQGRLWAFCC
Experimental: (§1) Antimicrobial assay—AP1 bacteria were grown to mid-log phase in TH broth, washed and diluted in 10 mM Tris-HCl, pH 7.5, containing 5 mM glucose. 50 μl bacteria (2×10^6 colony forming units (cfu)/ml) were incubated together with α-defensin or LL-37 at various concentrations for 2 h at 37° C. In subsequent experiments, bacteria were incubated with α-defensin and LL-37 at a concentration of 448 nM together with different concentrations of protein SIC or M1 protein and the reactions were carried out for 2 h (α-defensin) or 1 h (LL-37). To quantitate the bactericidal activity serial dilutions of the incubation mixtures were plated on TH agar, incubated overnight at 37° C., and the number of cfus were determined.

LL-37 [1] = target: T2, LL-37 (Homo sapiens, UniProt P49913); assay: Indirect ELISA, SIC homologues coated, binding of LL-37; conditions: purified SIC homologues on microtiter plates; M1 protein negative control
T2 construct: LL-37, […]; (Mw 4492) was synthesized by Innovagen AB; purchased Innovagen AB, Lund, Sweden; host or cells: chemical synthesis
T2 sequence (P49913 134-170 limits assumed): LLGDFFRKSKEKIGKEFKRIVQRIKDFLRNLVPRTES

LL-37 [2] = target: T2, LL-37; assay: Antimicrobial assay, inhibition of bactericidal effect of LL-37; type: cell-based
Experimental: as §1

AP1 bacteria [3] = system: AP1 bacteria
Experimental: as §1

AP1 bacteria [4] = system: AP1 bacteria; remark: listed apart in the source
Experimental: Bacterial growth assay—AP1 bacteria were grown to stationary phase in TH broth. 200 μl of TH was inoculated with 5 μl of the bacterial suspension in 96-well plates (Falcon) at 37° C. At early logarithmic phase various amounts of LL-37 was added and growth was followed by measuring the absorbance at 490 nm (using a BioRad 550 microplate reader). The amount of protein SIC in the growth medium was estimated by ELISA (see below).

protein SIC [5] = conditions: peptides on Immobilon filters probed with 125I-labelled SIC from M1 strain AP1
Experimental: Slot-binding and SDS-polyacrylamide gel electrophoresis—Peptides were applied to polyvinylidene difluoride (PVDF) membranes (Immobilon, Millipore) using a Milliblot-D system (Millipore). Membranes were blocked in TBS (0.05 M Tris-HCl, pH 7.5, 0.15 M NaCl) containing 3% bovine serum albumin (SA), incubated with ^125I-labelled protein SIC for 3 h, and washed with TBS containing 0.05% Tween-20. Autoradiography was carried out using Kodak x-Omat AR films and regular intesifying screens.

protein SIC [6] = conditions: SIC applied to plastic wells, peptide added, detected with antibodies
M1 protein = assay: Indirect ELISA, binding of antibacterial peptides to coated M1 protein (control); design: species or system S. pyogenes; conditions: M1 protein applied to plastic wells as control
LL-37 (human) = assay: cell-based or functional assay

Question: With “SIC: streptococcal inhibitor of complement, purified from S. pyogenes strain AP1 of serotype M1” as the substance, how does the “potency in blocking α-defensin and LL-37 relative to the M12 and M55 homologues” value (α-defensin; from inhibition curves FIG. 3C, both peptides at 448 nM) read?
Answer: The value was 5-10 times.

Question: What about the “blocking of antibacterial activity of α-defensin” value (α-defensin; α-defensin 0.448 μM, AP1 bacteria, 2 h, M1 protein at a maximum of 0.72 μM) of the same substance?
Answer: The value was “blocks”.

Question: And the “binding of LL-37 (ELISA, FIG. 3B)” value (LL-37 [1])?
Answer: Its value is “showed binding of LL-37 clearly above M1 protein”.

Question: What about the “blocking of antibacterial activity of LL-37” value (LL-37 [2]; LL-37 0.448 μM, AP1 bacteria, M1 protein at a maximum of 0.72 μM) of the same substance?
Answer: Its value is “blocks”.

Question: What about the “efficiency in blocking LL-37 relative to α-defensin” value (LL-37 [2]; from inhibition curves, FIG. 2 right panel) of the same substance?
Answer: The value was “about ten”.

Question: What does the source list for “human antibacterial peptide LLGDFFRKSKEKIGKEFKRIVQRIKDFLRNLVPRTES (Mw 4492), synthesized by Innovagen AB [LL-37]”?
Answer: concentration required for 100% killing (AP1 bacteria [3]; AP1 washed and resuspended in buffer, no SIC present, 2 h 37° C.): approximately 0.4 μM; EC50 (AP1 bacteria [3]; read-out: concentration of LL-37 required to kill 50% of the bacteria, bacteria washed to remove SIC before addition of LL-37): 0.2 µM; fold increase of concentration to kill 50% with secreted SIC versus washed bacteria (AP1 bacteria [4]; 11.1 μM compared to 0.2 μM): more than 50 times; EC50 (AP1 bacteria [4]; read-out: concentration of LL-37 required to kill 50% of the bacteria, AP1 at early logarithmic growth phase, SIC 4-5 μg/ml growth medium): 11.1 µM; interaction with 125I-labelled SIC (slot-binding, FIG. 1A) (protein SIC [5]): interacts; affinity for SIC (ELISA, FIG. 1B) (protein SIC [6]): showed affinity; interaction with M1 protein (ELISA, FIG. 1B) (M1 protein): at background level

Question: What does the source list for “protein SIC purified from S. pyogenes strain AP1 (serotype M1)”?
Answer: efficiency in blocking LL-37 against blocking α-defensin, from inhibition curves (LL-37 (human)): 10 times; fold rise of the LL-37 concentration required to kill 50% of the bacteria, with secreted SIC against washed bacteria (LL-37 (human)): 50 times
